Measurements published in patent US20140005119A1, “COMPOSITIONS AND METHODS FOR INHIBITING THE ACTIVITY OF P110a MUTANT PROTEINS” (Case Western Reserve University, priority 2012, published 2014).
Where no end group is shown, it is not given here.

Experiments:
[1] = molecular target: T1, interaction between p110α E545K and IRS1 (Homo sapiens, UniProt P35568); assay: Peptide competition assay in cell lysates (anti-FLAG immunoprecipitation, anti-IRS1 blot); assay type: binding; details: peptide added into cell lysates of p110α E545K 3×FLAG KI cells
T1 construct: In KI DLD1 cells, IRS1 was co-immunoprecipitated with p110α E545K but not the WT p110α; endogenous in cells; host or cells: DLD1 p110α E545K 3×FLAG knock-in cells (rAAV gene targeting of the endogenous allele)
T1 sequence (P35568 1-1242): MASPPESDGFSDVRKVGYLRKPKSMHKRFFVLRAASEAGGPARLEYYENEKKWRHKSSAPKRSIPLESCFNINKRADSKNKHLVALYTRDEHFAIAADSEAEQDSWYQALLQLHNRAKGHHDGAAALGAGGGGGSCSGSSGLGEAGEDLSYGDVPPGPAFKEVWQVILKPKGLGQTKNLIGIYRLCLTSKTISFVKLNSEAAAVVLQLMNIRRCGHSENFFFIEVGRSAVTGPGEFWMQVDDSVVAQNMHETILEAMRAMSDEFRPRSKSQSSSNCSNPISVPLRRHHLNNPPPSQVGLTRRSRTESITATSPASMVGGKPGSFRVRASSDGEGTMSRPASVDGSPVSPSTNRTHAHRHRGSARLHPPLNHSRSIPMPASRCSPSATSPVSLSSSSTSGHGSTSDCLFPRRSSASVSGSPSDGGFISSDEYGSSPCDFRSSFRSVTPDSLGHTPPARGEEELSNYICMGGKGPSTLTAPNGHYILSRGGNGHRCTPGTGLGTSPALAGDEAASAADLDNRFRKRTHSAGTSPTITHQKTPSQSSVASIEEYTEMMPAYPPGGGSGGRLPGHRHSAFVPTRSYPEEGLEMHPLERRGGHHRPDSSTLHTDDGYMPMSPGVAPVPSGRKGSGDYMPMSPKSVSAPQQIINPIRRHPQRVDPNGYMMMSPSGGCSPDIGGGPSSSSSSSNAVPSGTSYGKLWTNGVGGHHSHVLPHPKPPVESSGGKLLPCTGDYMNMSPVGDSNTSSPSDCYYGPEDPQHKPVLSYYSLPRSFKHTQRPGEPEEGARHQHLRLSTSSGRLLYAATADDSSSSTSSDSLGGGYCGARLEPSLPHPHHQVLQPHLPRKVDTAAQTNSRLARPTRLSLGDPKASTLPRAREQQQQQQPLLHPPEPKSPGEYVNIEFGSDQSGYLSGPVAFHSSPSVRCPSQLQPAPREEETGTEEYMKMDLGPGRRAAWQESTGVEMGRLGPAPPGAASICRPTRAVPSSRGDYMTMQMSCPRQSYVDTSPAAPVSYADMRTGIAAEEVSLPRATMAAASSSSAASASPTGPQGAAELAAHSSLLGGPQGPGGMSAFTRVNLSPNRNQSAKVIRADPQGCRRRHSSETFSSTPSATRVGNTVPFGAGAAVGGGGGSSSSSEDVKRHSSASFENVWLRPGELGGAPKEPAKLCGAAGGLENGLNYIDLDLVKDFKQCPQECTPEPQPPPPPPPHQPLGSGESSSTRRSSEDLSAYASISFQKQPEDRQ
Description: FIGS. 3(A-M) illustrate: (A, B) Mapping peptides (P3, SEQ ID NO: 1; P4 SEQ ID NO: 2; P5, SEQ ID NO: 3; P6, SEQ ID NO: 4) derived from mutant p110α that inhibit interaction between IRS1 and p110α E545K. The indicated peptides were added into cell lysates made from the p110α E545K 3×FLAG KI cells. Cell lysates were immunoprecipitated with beads conjugated with anti-FLAG antibodies and then blotted with anti-IRS1 antibodies. (C) Immunoblots of cell lysates made from the p110α E545K 3×FLAG KI cells. Cell lysates were immunoprecipitated with beads conjugated with anti-FLAG antibodies and then blotted with the indicated antibodies. (D) Immunoblots of cell lysate of Myc-tagged IRS1 plasmid, which co-transfected an ABD domain deletion construct of the FLAG-tagged p110α E545K mutant (ΔABD), incubated with the indicated amount of stapled p110α mutant peptides, and then immunoprecipitated with anti-FLAG antibodies and blotted with the indicated antibodies. (J, K) Immunoblot and graph of purified recombinant p110α E545K mutant proteins mixed with the indicated components and quantified using an in vitro lipid kinase assay. (L, M) Immunoblots of the indicated cell lines serum-starved, stimulated with 1 μg/ml insulin for 30 min, and then treated with or without the indicated peptides. Cell lysates were blotted with the indicated antibodies. All error bars show mean±SEM. *p<0.05, **p<0.001, t test.
(§1) For Co-immunoprecipitation (Co-IP), cells were harvested, washed with PBS, and then lysed in IP buffer (50 mMTris [pH 7.4], 150 mMNaCl, 5 mMEDTA [pH 8.0], 0.5% NP40, 1 mM PMSF, complete Protease Inhibitor Cocktail tablet [Roche]; supplemented with phosphatase inhibitors [1 mM Na3VO4, 20 mM NaF, 0.1 mM b-glycerophosphate, 20 mM sodium pyrophosphate] when necessary). For immunoblotting (IB) of phospho-specific proteins, unless stated otherwise, cells were lysed in urea buffer (100 mM NaH2PO4, 10 mM Tris-HCl, 8 M Urea, 1 mM Na3VO4, 20 mM NaF, 0.1 mM β-glycerophosphate, 20 mM sodium pyrophosphate, supplemented with complete Protease Inhibitor Cocktail tablet [Roche], pH 8.0). Lysates were then cleared by centrifugation (14,000 rpm, 10 min) and protein concentration in supernatants was determined with a BCA protein assay kit (Pierce, Rockford, Ill.). Equal amounts of total protein were used for IP or IB.
For in vitro peptide competition assay, the p110α mutant-FLAG-tagged cells were grown to 90% confluency, serum-starved overnight, and lysed as described previously. Peptides were then added to the cell lysates, incubated for 30 min at 4° C. and followed by immunoprecipitation assay.

[2] = molecular target: T2, IRS1-p110α E545K interaction in DLD1 cells (Homo sapiens, UniProt P35568); assay: Co-IP after peptide added to culture medium of p110α E545K 3×FLAG KI DLD1 cells; assay type: cell-based; design: dose or concentration left out as unconfirmed; details: peptide added to cell culture medium for 16 hr
T2 construct: endogenous in cells; host or cells: DLD1 p110α E545K 3×FLAG knock-in cells (rAAV gene targeting of the endogenous allele)
T2 sequence (P35568 1-1242): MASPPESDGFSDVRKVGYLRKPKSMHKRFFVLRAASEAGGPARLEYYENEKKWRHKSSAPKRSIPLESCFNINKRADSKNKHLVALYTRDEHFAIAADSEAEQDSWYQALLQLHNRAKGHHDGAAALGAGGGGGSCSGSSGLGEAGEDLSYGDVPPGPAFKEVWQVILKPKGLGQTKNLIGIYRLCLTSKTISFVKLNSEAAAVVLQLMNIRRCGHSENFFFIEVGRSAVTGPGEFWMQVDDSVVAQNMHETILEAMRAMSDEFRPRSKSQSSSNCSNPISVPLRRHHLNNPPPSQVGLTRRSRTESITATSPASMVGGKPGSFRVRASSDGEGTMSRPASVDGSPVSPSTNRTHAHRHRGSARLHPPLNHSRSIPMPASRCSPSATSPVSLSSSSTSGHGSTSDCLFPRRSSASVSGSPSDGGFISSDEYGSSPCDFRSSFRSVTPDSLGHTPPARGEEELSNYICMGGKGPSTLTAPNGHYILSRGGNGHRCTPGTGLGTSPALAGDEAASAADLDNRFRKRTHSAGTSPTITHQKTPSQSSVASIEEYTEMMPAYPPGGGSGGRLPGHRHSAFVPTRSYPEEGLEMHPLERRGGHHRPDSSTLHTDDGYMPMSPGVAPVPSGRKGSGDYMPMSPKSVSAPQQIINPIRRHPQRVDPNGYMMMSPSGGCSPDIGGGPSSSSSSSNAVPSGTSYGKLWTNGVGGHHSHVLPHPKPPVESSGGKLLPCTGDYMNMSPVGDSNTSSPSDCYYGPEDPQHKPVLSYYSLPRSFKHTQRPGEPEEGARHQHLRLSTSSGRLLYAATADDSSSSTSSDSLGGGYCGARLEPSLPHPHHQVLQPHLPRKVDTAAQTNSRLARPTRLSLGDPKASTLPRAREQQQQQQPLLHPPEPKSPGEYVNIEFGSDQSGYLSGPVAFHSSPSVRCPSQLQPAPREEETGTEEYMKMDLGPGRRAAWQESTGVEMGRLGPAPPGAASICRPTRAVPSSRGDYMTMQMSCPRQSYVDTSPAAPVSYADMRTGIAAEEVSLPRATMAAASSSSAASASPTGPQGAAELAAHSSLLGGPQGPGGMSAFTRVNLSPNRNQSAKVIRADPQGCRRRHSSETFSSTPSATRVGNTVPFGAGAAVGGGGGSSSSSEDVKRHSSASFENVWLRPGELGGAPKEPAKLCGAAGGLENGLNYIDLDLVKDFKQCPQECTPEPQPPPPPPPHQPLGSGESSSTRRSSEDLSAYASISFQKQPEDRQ
Description: FIG. 4(A-F) illustrate: (A) Schematic diagram of linear and stapled WT and mutant peptides derived from p110α (SEQ ID NOs: 5, 6, 7 and 8). (B) Immunoblots of cell lysates immunoprecipitated with beads conjugated with anti-FLAG antibodies and then blotted with the indicated antibodies. Linear or stapled WT and mutant peptide were added into culture medium of the p110α E545K 3×FLAG KI cells for 16 hr. (C) Immunoblots of cell lysates immunoprecipitated with anti-p110α antibodies and then blotted with the indicated antibodies. Vaco481 CRC cells were treated with the stapled mutant peptides at the indicated concentration. (D) Immunoblots of cell lysates blotted with the indicated antibodies. The indicated cell lines were treated with the stapled mutant peptide. (E) Immunoblots of cell lysates blotted with the indicated antibodies. The indicated cancer cell lines were treated or untreated with stapled WT or mutant peptide at […] for 2 hr. (F) Immunoblots of cell lysates were blotted with the indicated antibodies. The indicated cancer cell lines were treated with or without […] of stapled mutant peptide for 2 hr.
as §1

[3] = molecular target: insulin receptor substrate 1 (IRS1) (UniProt P35568)
[4] = molecular target: T3, wild-type p110α (endogenous, untagged) (UniProt P42336 1-1068); assay: pull-down with His-tagged IRS1 fragment from WT-only DLD1 lysates (FIG. 1B)
T3 construct: also called WT p110α
Source text: The altered interaction properties of the mutant forms of p110α prompted us to map the minimal essential regions of IRS1 required for its interaction with p110α E545K mutant protein. For this study, we made a series of 6×His-tagged IRS1 truncation constructs (FIGS. 1A and 1C). The His-tagged IRS1 proteins were first expressed in Eschericia coli and purified with Ni-NTA beads. Then the purified proteins were used to pull down p110α from DLD1 cells expressing either the WT p110α only or the p110α E545K mutant only. With these proteins, we first mapped the mutant p110α interaction domain to the middle part of IRS1 (amino acid [AA] 585-962) (FIG. 1B). This fragment contains three YxxM motifs that mediate the pY dependent IRS1-p85 protein interaction. We thus constructed an unphosphorylatable IRS1Y3F mutant fragment (FIG. 1A). […] In contrast, neither of the single region deletions could interrupt the IRS1 mutant p110α interaction. […] Finally, similar results were also observed when the IRS1D was expressed in p110α E545K 3×FLAG KI DLD1 cells.

T3 sequence (P42336 whole entry, the tested form may be a part): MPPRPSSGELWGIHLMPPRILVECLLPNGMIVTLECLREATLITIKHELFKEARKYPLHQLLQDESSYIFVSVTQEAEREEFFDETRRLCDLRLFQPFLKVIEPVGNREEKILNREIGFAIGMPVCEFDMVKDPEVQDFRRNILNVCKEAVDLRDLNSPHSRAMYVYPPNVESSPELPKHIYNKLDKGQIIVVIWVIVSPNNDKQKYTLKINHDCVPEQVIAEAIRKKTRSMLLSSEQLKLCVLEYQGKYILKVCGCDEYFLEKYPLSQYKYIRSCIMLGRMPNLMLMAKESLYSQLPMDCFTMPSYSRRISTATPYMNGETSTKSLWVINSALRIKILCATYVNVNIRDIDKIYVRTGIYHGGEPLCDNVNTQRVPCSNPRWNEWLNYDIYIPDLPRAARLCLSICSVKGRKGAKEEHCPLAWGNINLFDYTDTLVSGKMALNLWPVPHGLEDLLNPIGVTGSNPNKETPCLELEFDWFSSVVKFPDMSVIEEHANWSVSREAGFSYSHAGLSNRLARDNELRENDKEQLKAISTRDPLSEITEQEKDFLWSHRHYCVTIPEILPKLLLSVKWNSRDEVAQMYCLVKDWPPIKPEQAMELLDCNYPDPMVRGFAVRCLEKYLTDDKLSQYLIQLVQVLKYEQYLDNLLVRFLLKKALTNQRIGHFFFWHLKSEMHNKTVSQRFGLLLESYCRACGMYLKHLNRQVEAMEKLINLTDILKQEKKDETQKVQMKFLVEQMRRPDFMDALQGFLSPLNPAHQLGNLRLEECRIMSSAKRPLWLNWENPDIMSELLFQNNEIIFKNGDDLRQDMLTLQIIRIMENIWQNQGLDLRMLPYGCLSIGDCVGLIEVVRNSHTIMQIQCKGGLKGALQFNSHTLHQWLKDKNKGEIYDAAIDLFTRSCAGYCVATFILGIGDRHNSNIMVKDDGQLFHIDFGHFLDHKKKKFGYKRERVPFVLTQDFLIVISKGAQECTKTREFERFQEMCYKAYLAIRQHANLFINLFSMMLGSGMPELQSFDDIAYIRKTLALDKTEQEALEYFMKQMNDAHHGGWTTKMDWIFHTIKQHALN

With “18-AA mutant peptide: linear 18-AA E545K mutant peptide corresponding to the C-terminal α-helical motif of p110α helical domain (SEITKQEKDFLWSHRHYC-OH; listed as Homo sapiens)” the “inhibition of the interaction between p110α E545K and IRS1” value (shortened to “inhibition”) [1] was “moderate inhibition”, the “inhibition” value ([1]; listed as peptide corresponding to the C-terminal α-helical motif) was “inhibited” and the “disruption of IRS1-p110α E545K interaction in DLD1 cells” value [2] was “neither the linear mutant peptide nor the stapled WT peptide affected the interaction”.

For “30-AA mutant peptide: linear 30-AA p110α E545K mutant peptide forming two α-helix domains flanking the mutation site (EQLKAISTRDPLSEITKQEKDFLWSHRHYC-OH; listed as Homo sapiens)”, the “inhibition” value [1] was “inhibited”.

For “N-terminal 21-AA mutant peptide: linear N-terminal 21-AA mutant peptide corresponding to the N-terminal α-helical motif (EQLKAISTRDPLSEITKQEKD-OH; listed as Homo sapiens)”, the “inhibition” value [1] was “no effect”.

In the case of “WT peptide: linear 30-AA wild-type p110α counterpart of the 30-AA E545K mutant peptide (EQLKAISTRDPLSEITEQEKDFLWSHRHYC-OH; listed as Homo sapiens) [reference compound]”, the “inhibition” value [1] is reported as “failed to cause any inhibition”.

In the case of “p110α E545K mutant (endogenous, untagged)”, the AKT phosphorylation [3] is reported as “the stapled mutant peptide, but not the WT counterpart, reduced AKT phosphorylation in mutant-only DLD1 cells” and the “AKT phosphorylation at both T308 and S473 residues” value [3] is reported as “treatment of cancer cell lines (DLD1, H460, and MDA-MB361) harboring p110α E545K ... with the stapled mutant peptide resulted in reduced AKT phosphorylation”.

B1: 6×His-tagged IRS1 middle fragment (AA 585-962) (other, UniProt P35568 585-962, looked up)
chain: EGLEMHPLERRGGHHRPDSSTLHTDDGYMPMSPGVAPVPSGRKGSGDYMPMSPKSVSAPQQIINPIRRHPQRVDPNGYMMMSPSGGCSPDIGGGPSSSSSSSNAVPSGTSYGKLWTNGVGGHHSHVLPHPKPPVESSGGKLLPCTGDYMNMSPVGDSNTSSPSDCYYGPEDPQHKPVLSYYSLPRSFKHTQRPGEPEEGARHQHLRLSTSSGRLLYAATADDSSSSTSSDSLGGGYCGARLEPSLPHPHHQVLQPHLPRKVDTAAQTNSRLARPTRLSLGDPKASTLPRAREQQQQQQPLLHPPEPKSPGEYVNIEFGSDQSGYLSGPVAFHSSPSVRCPSQLQPAPREEETGTEEYMKMDLGPGRRAAWQESTGVEM
notes: range 585-962; Expressed in E. coli BL21, purified on Ni-NTA beads; also called middle part of IRS1; middle fragment of IRS1; not shown: 6×His tag
B1: no binding [4].
